Experimental data from PMC8219380, “The discriminatory power of the T cell receptor” (eLife, 2021).
“And” between values parts separate entries of the source, which are not always exact repeats. Equal values may be shown once. Blank lines part the entries; values can stand above or below the molecule they belong to.

How the values were obtained:
[1] = biological target: NY-ESO-1 (peptide variant NYE 5F) peptide on HLA-A*02:01 (human); assay: SPR at 37°C, new method with Bmax constrained by the W6/32 standard curve; soluble, other
[2] = biological target: NY-ESO-1 (NYE 9V: heteroclitic variant of the wild-type NYE-ESO 157–165 9C peptide) peptide on HLA-A*02:01 (human); assay: SPR at 37°C (Biacore T200), soluble 1G4 injected over immobilised biotinylated pMHC; standard method with fitted Bmax; Figure 1A–C left column, which the legend names NYE 9V; soluble, other
[3] = biological target: 1G4 TCR; assay: SPR, 1G4 TCR binding to immobilised pMHC (steady state, 37°C); parameters: species or system human; conditions: Bmax fitted, read-out: KD (standard protocol)
[4] = biological target: NYE 3A peptide on HLA-A*02:01; assay: SPR
[5] = biological target: NYE 3Y peptide on HLA-A*02:01; assay: SPR
[6] = biological target: NYE 4A peptide on HLA-A*02:01; assay: SPR
[7] = biological target: NYE 5F peptide on HLA-A*02:01; assay: SPR
[8] = biological target: NYE 5Y peptide on HLA-A*02:01; assay: SPR
[9] = biological target: NYE 6T peptide on HLA-A*02:01; assay: SPR
[10] = biological target: NYE 9V peptide on HLA-A*02:01; assay: SPR
[11] = biological target: NYE 9V peptide on HLA-A*02:01 (pMHC); assay: SPR
[12] = biological target: NYE 5F peptide on HLA-A*02:01; assay: SPR; 37°C
[13] = biological target: NYE 5F peptide on HLA-A*02:01; assay: SPR; Bmax fitted, 37°C
[14] = biological target: NYE 9V peptide on HLA-A*02:01; assay: SPR; Bmax fitted, 37°C
[15] = biological target: NYE 5F peptide on HLA-A*02:01; assay: SPR; Bmax constrained, 37°C
[16] = biological target: NYE 9V peptide on HLA-A*02:01; assay: SPR; Bmax constrained, 37°C
[17] = biological target: Tax 1A peptide on HLA-A*02:01 (human | HTLV-1); assay: SPR
[18] = biological target: Tax 1V peptide on HLA-A*02:01 (human | HTLV-1); assay: SPR
[19] = biological target: Tax 4A peptide on HLA-A*02:01 (human | HTLV-1); assay: SPR
[20] = biological target: Tax 4A8A peptide on HLA-A*02:01 (human | HTLV-1); assay: SPR
[21] = biological target: Tax 5F peptide on HLA-A*02:01 (human | HTLV-1); assay: SPR
[22] = biological target: Tax 5H peptide on HLA-A*02:01 (human | HTLV-1); assay: SPR
[23] = biological target: Tax 5H8A peptide on HLA-A*02:01 (human | HTLV-1); assay: SPR
[24] = biological target: Tax 5W peptide on HLA-A*02:01 (human | HTLV-1); assay: SPR
[25] = biological target: Tax 6V peptide on HLA-A*02:01 (human | HTLV-1); assay: SPR
[26] = biological target: Tax 7H peptide on HLA-A*02:01 (human | HTLV-1); assay: SPR
[27] = biological target: Tax 7R peptide on HLA-A*02:01 (human | HTLV-1); assay: SPR
[28] = biological target: Tax 7T peptide on HLA-A*02:01 (human | HTLV-1); assay: SPR
[29] = biological target: Tax 8A peptide on HLA-A*02:01 (human | HTLV-1); assay: SPR
[30] = biological target: Tax 8F peptide on HLA-A*02:01 (human | HTLV-1); assay: SPR
[31] = biological target: Tax 5F peptide on HLA-A*02:01 (human | HTLV-1); assay: SPR; 37°C
[32] = system: CD8+ T cell blasts expressing 1G4 TCR; assay: TCR downregulation (tetramer gMFI), plate-bound pMHC + CD58; format: cell-based, human
Description: (§1) Figure 4. The T cell discriminatory power is enhanced by ligation of the receptors CD2 or LFA-1. (A) Protocol for stimulation of CD8^+ T cell blasts with plate-bound recombinant ligands. (B, C) Example dose-response curve for 1G4 T cell blasts stimulated with (B) peptides presented on major histocompatibility complex (pMHC) alone or (C) in combination with CD58 or ICAM1. (D, E) Potency derived from dose-response curves over KD showing the power function fit (D) with pMHC alone or (E) in combination with CD58 or ICAM1. (F) Comparison of the fitted discrimination power (α) and (G) fitted sensitivity ( C ). Shown are geometric means with each dot representing an independent experiment (n = 4–5). (F) In grey the result of a statistical test vs. 1 is shown (p=0.09 for pMHC, p=0.002 for CD58 and ICAM1, p=0.0002 for U87/1G4). Figure 4—source data 1. CD69 dose-response data for Figure 4. […]
(§2) For stimulation, T cells were counted, washed once to remove excess IL2, and 75,000 cells in 180–200 μl complete RMPI were dispensed per well. […] Cells were stained for flow cytometry and analysed immediately, or fixed and stored for up to 1 day. […]
(§3) Tetramers were produced in-house using refolded monomeric, biotinylated pMHC, and streptavidin-PE (Biolegend) at a 1:4 molar ratio. […] Samples were analysed using a BD X-20 flow cytometer, and data analysis was performed using FlowJo v10 (BD Biosciences).

[33] = system: CD8+ T cell blasts expressing 1G4 TCR; assay: TCR downregulation (tetramer gMFI), plate-bound pMHC + ICAM1; format: cell-based, human
Description: as §1, §2, §3

- Kd [1]: 1310 µM
- Kd [2]: 7 µM
Molecule: 1G4 TCR

- Kd [3]: ~7 µM
Molecule: NY-ESO-1 peptide: cognate NY-ESO-1 peptide of the 1G4 TCR

- Kd ([4]; Bmax constrained (new method)): 6.28 µM
- Kd ([4]; Bmax fitted (standard method)): 7.04 µM
- Kd ([5]; Bmax constrained (new method)): 47.3 µM
- Kd ([5]; Bmax fitted (standard method)): 36.3 µM
- Kd ([6]; Bmax constrained (new method)): 299 µM
- Kd ([6]; Bmax fitted (standard method)): 157 µM
- Kd [7]: 756 µM
- Kd ([8]; Bmax constrained (new method)): 433 µM
- Kd ([8]; Bmax fitted (standard method)): 191 µM
- Kd ([9]; Bmax constrained (new method)): 162 µM
- Kd ([9]; Bmax fitted (standard method)): 84.6 µM
- Kd ([10]; Bmax constrained (new method)): 4.93 µM
- Kd ([10]; Bmax fitted (standard method)): 7.97 µM
- Kd [11]: 7 µM
- Kd [12]: 1310 µM
- Kd [13]: 198 µM
- Kd [14]: 6.8 µM
- Kd [15]: 1590 µM
- Kd [16]: 4.6 µM
Molecule: soluble 1G4 αβ TCR

Molecule: soluble A6 αβ TCR
- Kd [17]: 4.25 µM and 6.5 µM
- Kd [18]: 6.92 µM and 7.97 µM
- Kd [19]: 72.5 µM and 118 µM
- Kd [20]: 194 µM and 1870 µM
- Kd [21]: 3.36 µM and 2.67 µM
- Kd [22]: 36.2 µM and 56.1 µM
- Kd [23]: 2820 µM and 2320 µM
- Kd [24]: 6.08 µM and 5 µM
- Kd [25]: 13.5 µM and 21.1 µM
- Kd [26]: 45.8 µM and 67.8 µM
- Kd [27]: 11.5 µM and 21.4 µM
- Kd [28]: 3.42 µM and 2.8 µM
- Kd [29]: 599 µM and 565 µM
- Kd [30]: 37.1 µM and 60 µM
- Kd [31]: 3 µM

B1: CD58: soluble extracellular domain of human CD58, the ligand to CD2 (protein, UniProt P19256 29-215, looked up)
extracellular domain: FSQQIYGVVYGNVTFHVPSNVPLKEVLWKKQKDKVAELENSEFRAFSSFKNRVYLDTVSGSLTIYNLTSSDEDEYEMESPNITDTMKFFLYVLESLPSPTLTCALTNGSIEVQCMIPEHYNSHRGLIMYSWDCPMEQCKRNSTSIYFKMENDLPQKIQCTLSNPLFNTTSSIILTTCIPSSGHSRHR
modifications: extracellular domain
notes: soluble extracellular domain of human CD58, the ligand to CD2
- TCR downregulation [32]: increased TCR downregulation

B2: ICAM1: human ICAM1 ECD, a ligand of LFA-1 (protein, UniProt P05362 28-480, looked up)
extracellular domain: QTSVSPSKVILPRGGSVLVTCSTSCDQPKLLGIETPLPKKELLLPGNNRKVYELSNVQEDSQPMCYSNCPDGQSTAKTFLTVYWTPERVELAPLPSWQPVGKNLTLRCQVEGGAPRANLTVVLLRGEKELKREPAVGEPAEVTTTVLVRRDHHGANFSCRTELDLRPQGLELFENTSAPYQLQTFVLPATPPQLVSPRVLEVDTQGTVVCSLDGLFPVSEAQVHLALGDQRLNPTVTYGNDSFSAKASVSVTAEDEGTQRLTCAVILGNQSQETLQTVTIYSFPAPNVILTKPEVSEGTEVTVKCEAHPRAKVTLNGVPAQPLGPRAQLLLKATPEDNGRSFSCSATLEVAGQLIHKNQTRELRVLYGPRLDERDCPGNWTWPENSQQTPMCQAWGNPLPELKCLKDGTFPLPIGESVTVTRDLEGTYLCRARSTQGEVTRKVTVNVLSPRYE
modifications: extracellular domain
- TCR downregulation [33]: increased TCR downregulation
